B1: TRIM35 (parent)
chain: PTCPVCKDRASPADLRTNHTLNNL

Variants of: B1
Test: protein stability index of a GFP-peptide fusion (GPS, HEK-293T) (PSI 1-6); higher = more stable
Details: c terminus: a fixed tail appended
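Further: lentivirally expressed fusions sorted by FACS into six bins by GFP to DsRed ratio, PSI derived from sequencing read proportions per bin multiplied by bin number.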

Variant	protein stability index
PTCPVCKDRASPADDRTNHTLNNL	3.73
PTCPVCKDRASPADSRTNHTLNNL	3.57
PTCPVCKDRASPADYRTNHTLNNL	2.83
PTCPVCKDRASPADCRTNHTLNNL	4.23
PTCPVCKDRASPADKRTNHTLNNL	3.21
PTCPVCKDRASPADWRTNHTLNNL	2.13
PTCPVCKDRASPADHRTNHTLNNL	3.14
PTCPVCKDRASPADMRTNHTLNNL	2.9
PTCPVCKDRASPADFRTNHTLNNL	2.66
PTCPVCKDRASPADQRTNHTLNNL	3.78
PTCPVCKDRASPADNRTNHTLNNL	3.96
PTCPVCKDRASPADERTNHTLNNL	3.86
PTCPVCKDRASPADARTNHTLNNL	3.35
PTCPVCKDRASPADVRTNHTLNNL	3.67
PTCPVCKDRASPADRRTNHTLNNL	3.33
PTCPVCKDRASPADIRTNHTLNNL	3
PTCPVCKDRASPADPRTNHTLNNL	3.34
PTCPVCKDRASPADGRTNHTLNNL	3.87
PTCPVCKDRASPADTRTNHTLNNL	3.57
PTCPVCKDRASPADLRTNHALNNL	3.11
PTCPVCKDRASPADLRTNHLLNNL	2.77
PTCPVCKDRASPADLRTNHCLNNL	3
PTCPVCKDRASPADLRTNHQLNNL	3.06
PTCPVCKDRASPADLRTNHYLNNL	2.74

Variant	protein stability index
PTCPVCKDRASPADLRTNHPLNNL	3.23
PTCPVCKDRASPADLRTNHFLNNL	2.59
PTCPVCKDRASPADLRTNHSLNNL	2.7
PTCPVCKDRASPADLRTNHMLNNL	2.67
PTCPVCKDRASPADLRTNHELNNL	3.92
PTCPVCKDRASPADLRTNHWLNNL	2.09
PTCPVCKDRASPADLRTNHRLNNL	2.93
PTCPVCKDRASPADLRTNHKLNNL	2.81
PTCPVCKDRASPADLRTNHDLNNL	3.76
PTCPVCKDRASPADLRTNHVLNNL	3.19
PTCPVCKDRASPADLRTNHHLNNL	3.03
PTCPVCKDRASPADLRTNHGLNNL	2.76
PTCPVCKDRASPADLRTNHNLNNL	3
PTCPVCKDRASPADLRTNHILNNL	2.76
PTCPVCKDRASHADLRTNHTLNNL	2.61
PTCPVCKDRASTADLRTNHTLNNL	2.96
PTCPVCKDRASMADLRTNHTLNNL	2.35
PTCPVCKDRASDADLRTNHTLNNL	3.5
PTCPVCKDRASSADLRTNHTLNNL	2.95
PTCPVCKDRASVADLRTNHTLNNL	2.85
PTCPVCKDRASRADLRTNHTLNNL	2.36
PTCPVCKDRASEADLRTNHTLNNL	3.38
PTCPVCKDRASQADLRTNHTLNNL	3.11
PTCPVCKDRASCADLRTNHTLNNL	2.58

Variant	protein stability index
PTCPVCKDRASWADLRTNHTLNNL	2.03
PTCPVCKDRASYADLRTNHTLNNL	2.69
PTCPVCKDRASLADLRTNHTLNNL	2.1
PTCPVCKDRASFADLRTNHTLNNL	2.52
PTCPVCKDRASKADLRTNHTLNNL	2.83
PTCPVCKDRASGADLRTNHTLNNL	2.9
PTCPVCKDRASNADLRTNHTLNNL	2.89
PTCPVCKDRASIADLRTNHTLNNL	2.47
PTCPVCKDRASAADLRTNHTLNNL	2.46
PTCPVCKDRASPADLRTNHTHNNL	3.66
PTCPVCKDRASPADLRTNHTFNNL	2.62
PTCPVCKDRASPADLRTNHTANNL	3.22
PTCPVCKDRASPADLRTNHTDNNL	3.99
PTCPVCKDRASPADLRTNHTNNNL	3.27
PTCPVCKDRASPADLRTNHTCNNL	4.64
PTCPVCKDRASPADLRTNHTKNNL	3.13
PTCPVCKDRASPADLRTNHTINNL	2.61
PTCPVCKDRASPADLRTNHTPNNL	3.39
PTCPVCKDRASPADLRTNHTGNNL	3.3
PTCPVCKDRASPADLRTNHTQNNL	3.52
PTCPVCKDRASPADLRTNHTMNNL	3.18
PTCPVCKDRASPADLRTNHTENNL	3.59
PTCPVCKDRASPEDLRTNHTLNNL	3.86
PTCPVCKDRASPYDLRTNHTLNNL	2.59

Variant	protein stability index
PTCPVCKDRASPFDLRTNHTLNNL	2.26
PTCPVCKDRASPMDLRTNHTLNNL	2.58
PTCPVCKDRASPHDLRTNHTLNNL	3.1
PTCPVCKDRASPKDLRTNHTLNNL	3.65
PTCPVCKDRASPSDLRTNHTLNNL	2.87
PTCPVCKDRASPNDLRTNHTLNNL	3.27
PTCPVCKDRASPVDLRTNHTLNNL	2.62
PTCPVCKDRASPLDLRTNHTLNNL	2.31
PTCPVCKDRASPQDLRTNHTLNNL	2.55
PTCPVCKDRASPTDLRTNHTLNNL	2.75
PTCPVCKDRASPWDLRTNHTLNNL	1.81
PTCPVCKDRASPDDLRTNHTLNNL	3.13
PTCPVCKDRASPCDLRTNHTLNNL	3.69
PTCPVCKDRASPGDLRTNHTLNNL	3.23
PTCPVCKDRASPIDLRTNHTLNNL	2.53
PTCPVCKDRASPRDLRTNHTLNNL	3.2
PTCPVCKDRASPPDLRTNHTLNNL	3.29
PTCPVCKDRAWPADLRTNHTLNNL	2.51
PTCPVCKDRAVPADLRTNHTLNNL	3.1
PTCPVCKDRAYPADLRTNHTLNNL	3.11
PTCPVCKDRATPADLRTNHTLNNL	3.04
PTCPVCKDRASPAKLRTNHTLNNL	2.72
PTCPVCKDRASPAPLRTNHTLNNL	2.98
PTCPVCKDRASPATLRTNHTLNNL	2.77

Variant	protein stability index
PTCPVCKDRASPAFLRTNHTLNNL	2.21
PTCPVCKDRASPACLRTNHTLNNL	3.9
PTCPVCKDRASPAVLRTNHTLNNL	2.54
PTCPVCKDRASPAMLRTNHTLNNL	2.2
PTCPVCKDRASPARLRTNHTLNNL	2.94
PTCPVCKDRASPAELRTNHTLNNL	3.12
PTCPVCKDRASPANLRTNHTLNNL	2.5
PTCPVCKDRASPAWLRTNHTLNNL	2.6
PTCPVCKDRASPAILRTNHTLNNL	2.45
PTCPVCKDRASPAYLRTNHTLNNL	2.24
PTCPVCKDRASPASLRTNHTLNNL	2.98
PTCPVCKDRASPAHLRTNHTLNNL	2.97
PTCPVCKDRASPALLRTNHTLNNL	2.2
PTCPVCKDRASPAGLRTNHTLNNL	2.48
PTCPVCKDRASPAALRTNHTLNNL	2.5
PTCPVCKDRASPAQLRTNHTLNNL	3.18
PTCPVCKDRASPADLRTNFTLNNL	2.4
PTCPVCKDRASPADLRTNRTLNNL	3.14
PTCPVCKDRASPADLRTNYTLNNL	3.13
PTCPVCKDRASPADLRTNPTLNNL	3.19
PTCPVCKDRASPADLRTNETLNNL	3.79
PTCPVCKDRASPADLRTNGTLNNL	3.33
PTCPVCKDRASPADLRTNATLNNL	2.86
PTCPVCKDRASPADLRTNWTLNNL	2.86

Variant	protein stability index
PTCPVCKDRASPADLRTNVTLNNL	3.04
PTCPVCKDRASPADLRTNMTLNNL	3.09
PTCPVCKDRASPADLRTNTTLNNL	2.81
PTCPVCKDRASPADLRTNLTLNNL	3.02
PTCPVCKDRASPADLRTNSTLNNL	3.09
PTCPVCKDRASPADLRTNNTLNNL	3.09
PTCPVCKDRASPADLRTNQTLNNL	3.28
PTCPVCKDRASPADLRTNCTLNNL	2.95
PTCPVCKDRASPADLRTNKTLNNL	3.21
PTCPVCKDRASPADLRTNDTLNNL	3.61
PTCPVCKDRASPADLRTNITLNNL	2.5
PTCPVCKDRASPADLCTNHTLNNL	3.89
PTCPVCKDRASPADLYTNHTLNNL	2.42
PTCPVCKDRASPADLHTNHTLNNL	3.17
PTCPVCKDRASPADLWTNHTLNNL	2.01
PTCPVCKDRASPADLKTNHTLNNL	2.7
PTCPVCKDRASPADLITNHTLNNL	2.33
PTCPVCKDRASPADLETNHTLNNL	4.09
PTCPVCKDRASPADLVTNHTLNNL	3.07
PTCPVCKDRASPADLNTNHTLNNL	3.32
PTCPVCKDRASPADLSTNHTLNNL	3.54
PTCPVCKDRASPADLMTNHTLNNL	2.72
PTCPVCKDRASPADLQTNHTLNNL	3.39
PTCPVCKDRASPADLLTNHTLNNL	3.04

Variant	protein stability index
PTCPVCKDRASPADLTTNHTLNNL	2.95
PTCPVCKDRASPADLPTNHTLNNL	3.11
PTCPVCKDRASPADLFTNHTLNNL	2.42
PTCPVCKDRASPADLDTNHTLNNL	3.91
PTCPVCKDRASPADLATNHTLNNL	3.34
PTCPVCKDRASPADLGTNHTLNNL	2.63
PTCPVCKDRASPADLRTPHTLNNL	2.83
PTCPVCKDRASPADLRTLHTLNNL	2.6
PTCPVCKDRASPADLRTDHTLNNL	3.4
PTCPVCKDRASPADLRTHHTLNNL	2.94
PTCPVCKDRASPADLRTKHTLNNL	2.48
PTCPVCKDRASPADLRTEHTLNNL	3.75
PTCPVCKDRASPADLRTQHTLNNL	3.3
PTCPVCKDRASPADLRTSHTLNNL	2.81
PTCPVCKDRASPADLRTGHTLNNL	3.03
PTCPVCKDRASPADLRTRHTLNNL	2.71
PTCPVCKDRASPADLRTVHTLNNL	2.62
PTCPVCKDRASPADLRTWHTLNNL	2.16
PTCPVCKDRASPADLRTAHTLNNL	2.67
PTCPVCKDRASPADLRTMHTLNNL	2.64
PTCPVCKDRASPADLRTTHTLNNL	2.86
PTCPVCKDRASPADLRTYHTLNNL	2.76
PTCPVCKDRASPADLRTIHTLNNL	2.31
PTCPVCKDRASPADLRTFHTLNNL	2.53

Variant	protein stability index
PTCPVCKDRASPADLRTCHTLNNL	3.6
PTCPVCKDRASPADLRINHTLNNL	3.07
PTCPVCKDRASPADLRMNHTLNNL	2.67
PTCPVCKDRASPADLRDNHTLNNL	3.36
PTCPVCKDRASPADLRHNHTLNNL	3.66
PTCPVCKDRASPADLRPNHTLNNL	3.34
PTCPVCKDRASPADLRFNHTLNNL	2.52
PTCPVCKDRASPADLRENHTLNNL	3.29
PTCPVCKDRASPADLRANHTLNNL	2.75
PTCPVCKDRASPADLRNNHTLNNL	3.09
PTCPVCKDRASPADLRGNHTLNNL	3.18
PTCPVCKDRASPADLRRNHTLNNL	3.1
PTCPVCKDRASPADLRYNHTLNNL	2.6
PTCPVCKDRASPADLRLNHTLNNL	2.58
PTCPVCKDRASPADLRVNHTLNNL	2.6
PTCPVCKDRASPADLRCNHTLNNL	4.21
PTCPVCKDRASPADLRKNHTLNNL	3.02
PTCPVCKDRASPADLRWNHTLNNL	2.35
PTCPVCKDRASPADLRSNHTLNNL	3.13
PTCPVCKDRASPADLRQNHTLNNL	3.28

From the supplement of paper PMC10567573
